PMC10899789

Legend:
Settings in all cases: 50 mM Tris-HCl pH 7.5, 50 mM NaCl, 10 mM MgCl2; SV at 20 C, SE under same conditions (5000 rpm, 260 nm)
[1] = molecular target: T1, p6 wt (Bacillus subtilis phage phi29) (UniProt P03685); assay: sedimentation equilibrium
T1 sequence: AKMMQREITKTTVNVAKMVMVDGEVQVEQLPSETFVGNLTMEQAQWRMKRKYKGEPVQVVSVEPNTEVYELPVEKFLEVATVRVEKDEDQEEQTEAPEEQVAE

[2] = molecular target: T2, p6CΔ20 del85-104 (Bacillus subtilis phage phi29) (UniProt P03685); assay: sedimentation equilibrium
T2 sequence: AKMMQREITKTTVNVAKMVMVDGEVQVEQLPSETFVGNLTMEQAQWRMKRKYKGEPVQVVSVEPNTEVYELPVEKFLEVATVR

[3] = molecular target: T2, p6CΔ20 del85-104 (Bacillus subtilis phage phi29); assay: sedimentation velocity

GCCCACATACTTTGTTGATTGGTTGTCAATCATGGCAAAAGTGCACGCTACTTTGATAACCTTTTACATGCGACACAGACGAAGCGCTAAAACGTGGGATTCTGTGTCGTTTTATGTTGTTCATTGACAAACCTATCTAGTAGGTCTATAGATTGATATATTAAGTAGTAGTTTCCCTCCCTGATCATGGTATGCCGAGGATCGACGGATTATGTCGATATTAGGAGAATGGTATCATGTGAGGGTGGGGGCTTACTTT (double strand) [L fragment (DNA-L)]
Kd [1]: 2.46 µM | Kd [2]: 1.47 µM | binding [3]: binds
